{"source": "patent US20250179429A1", "about": "“CELL CULTURE MEDIUM” (Auckland UniServices Limited, priority 2017, published 2025)", "molecules": {"B1": {"name": "KGF: Keratinocyte growth factor, encoded in humans by the FGF7 gene, binds FGFR2b (protein, UniProt P21781 32-194, looked up)", "Fibroblast growth factor 7": "CNDMTPEQMATNVNCSSPERHTRSYDYMEGGDIRVRRLFCRTQWYLRIDKRGKVKGTQEMKNNYNIMEIRTVAVGIVAIKGVESEFYLAMNKEGKLYAKKECNEDCNFKELILENHYNTYASAKWTHNGGEMFVALNQKGIPVRGKKTKKEQKTAHFLPMAIT"}}, "tested_on": "Human primary keratinocytes", "assay": "Keratinocyte growth in culture media: rhodamine B staining, confluency measured with Operetta plate reader", "assay_type": "cell-based", "note": "Read-outs that look alike come from different tables or passages of the source."}
{"molecule": "B1", "values": [{"measurement": "effect of added KGF on keratinocyte growth, FIG. 1", "result": "cannot rescue the growth"}, {"measurement": "effect of added KGF on keratinocyte growth, FIG. 1", "setting": "added to Green's media + Y27632", "result": "fails to enhance keratinocyte growth"}, {"measurement": "effect of added KGF on keratinocyte growth, FIG. 1", "setting": "added to base media + Y27632", "result": "stimulates growth"}, {"measurement": "effect of adding KGF to Base medium on keratinocyte growth, FIG. 2", "setting": "in the presence of ROCK inhibitor SB772077B, no MEFs", "result": "critical component in Kelch's medium"}]}
